From paper doi:10.1101/2021.04.16.440108 (bioRxiv, 2021)

B1: Transgelin 3 (TAGLN3) (natural protein, human, UniProt Q9UI15 1-199, looked up)
chain: MANRGPSYGLSREVQEKIEQKYDADLENKLVDWIILQCAEDIEHPPPGRAHFQKWLMDGTVLCKLINSLYPPGQEPIPKISESKMAFKQMEQISQFLKAAETYGVRTTDIFQTVDLWEGKDMAAVQRTLMALGSVAVTKDDGCYRGEPSWFHRKAQQNRRGFSEEQLRQGQNVIGLQMGSNKGASQAGMTGYGMPRQIM
B2: IκBα (natural protein, UniProt P25963 1-317, looked up)
chain: MFQAAERPQEWAMEGPRDGLKKERLLDDRHDSGLDSMKDEEYEQMVKELQEIRLEPQEVPRGSEPWKQQLTEDGDSFLHLAIIHEEKALTMEVIRQVKGDLAFLNFQNNLQQTPLHLAVITNQPEIAEALLGAGCDPELRDFRGNTPLHLACEQGCLASVGVLTQSCTTPHLHSILKATNYNGHTCLHLASIHGYLGIVELLVSLGADVNAQEPCNGRTALHLAVDLQNPDLVSLLLKCGADVNRVTYQGYSPYQLTWGRPSTRIQQQLGQLTLENLQMLPESEDEESYDTESEFTEFTEDELPYDDCVFGGQRLTL

Assays:
IκBα = target: B2; assay: nanoDSF
Transgelin 3 (TAGLN3) = target: B1; assay: nanoDSF

Q: How did the Kd (IκBα) turn out when B1 was run?
A: 10 µM

Q: Which “Tm of TAGLN3 with 6-fold excess of IκBα (free TAGLN3: 56.8°C)” value (Transgelin 3 (TAGLN3)) does the source give for B2 here?
A: 61 °C
